The results in this text go back to paper PMC11960969, “Mdga2 deficiency leads to an aberrant activation of BDNF/TrkB signaling that underlies autism-relevant synaptic and behavioral changes in mice” (PLOS Biology, 2025).

Sequences and labels used below:
B1: sp¦P60755¦MDGA2_MOUSE (protein, UniProt P60755 26-924, looked up)
MAM domain-containing …: PPTVRIVHSGLACNIEEERYSERVYTIREGETLELTCLVTGHPRPQIRWTKTAGSASDRFQDSSVFNETLRITNIQRHQGGRYYCKAENGLGSPAIKSIRVDVYYLDDPVVTVHQSIGEAKEQFYYERTVFLRCVANSNPPVRYSWRRGQEVLLQGSDKGVEIYEPFFTQGETKILKLKNLRPQDYANYSCIASVRNVCNIPDKMVSFRLSNKTASPSIKLLVDDPIVVNPGEAITLVCVTTGGEPTPSLTWVRSFGTLPEKIVLNGGTLTIPAITSDDAGTYSCIANNNVGNPAKKSTNIIVRALKKGRFWITPDPYHKDDNIQIGREVKISCQVEAVPSEELTFSWFKNGRPLRSSERMVITQTDPDVSPGTTNLDIIDLKFTDFGTYTCVASLKGGGISDISIDVNISSSTVPPNLTVPQEKSPLVTREGDTIELQCQVTGKPKPIILWSRADKEVAMPDGTMQMESYDGTLRIVNVSREMSGMYRCQTSQYNGFNVKPREALVQLIVQYPPAVEPAFLEIRQGQDRSVTMSCRVLRAYPIRVLTYEWRLGNKLLRTGQFDSQEYTEYPLKSLSNENYGVYNCSIINEAGAGRCSFLVTGKAYAPEFYYDTYNPVWQNRHRVYSYSLQWTQMNPDAVDRIVAYRLGIRQAGQQRWWEQEIKINGNIQKGELITYNLTELIKPEAYEVRLTPLTKFGEGDSTIRVIKYTGEFHCGFEDGNICLFTQDDTDNFDWTKQSTATRNTKYTPNTGPSADRSGSKEGFYMYIETSRPRLEGEKARLLSPVFSIAPKNPYGPTNSAYCFSFFYHMYGQHIGVLNVYLRLKGQTTIENPLWSSSGNKGQRWNEAHVNIYPITSFQLIFEGIRGPGIEGDIAIDDVSIAEGECAKQDLPTKNSVD
B2: sp¦P05532¦KIT_MOUSE (protein, UniProt P05532 25-979, looked up)
Mast/stem cell growth factor …: SQPSASPGEPSPPSIHPAQSELIVEAGDTLSLTCIDPDFVRWTFKTYFNEMVENKKNEWIQEKAEATRTGTYTCSNSNGLTSSIYVFVRDPAKLFLVGLPLFGKEDSDALVRCPLTDPQVSNYSLIECDGKSLPTDLTFVPNPKAGITIKNVKRAYHRLCVRCAAQRDGTWLHSDKFTLKVRAAIKAIPVVSVPETSHLLKKGDTFTVVCTIKDVSTSVNSMWLKMNPQPQHIAQVKHNSWHRGDFNYERQETLTISSARVDDSGVFMCYANNTFGSANVTTTLKVVEKGFINISPVKNTTVFVTDGENVDLVVEYEAYPKPEHQQWIYMNRTSANKGKDYVKSDNKSNIRYVNQLRLTRLKGTEGGTYTFLVSNSDASASVTFNVYVNTKPEILTYDRLINGMLQCVAEGFPEPTIDWYFCTGAEQRCTTPVSPVDVQVQNVSVSPFGKLVVQSSIDSSVFRHNGTVECKASNDVGKSSAFFNFAFKGNNKEQIQAHTLFTPLLIGFVVAAGAMGIIVMVLTYKYLQKPMYEVQWKVVEEINGNNYVYIDPTQLPYDHKWEFPRNRLSFGKTLGAGAFGKVVEATAYGLIKSDAAMTVAVKMLKPSAHLTEREALMSELKVLSYLGNHMNIVNLLGACTVGGPTLVITEYCCYGDLLNFLRRKRDSFIFSKQEEQAEAALYKNLLHSTEPSCDSSNEYMDMKPGVSYVVPTKTDKRRSARIDSYIERDVTPAIMEDDELALDLDDLLSFSYQVAKGMAFLASKNCIHRDLAARNILLTHGRITKICDFGLARDIRNDSNYVVKGNARLPVKWMAPESIFSCVYTFESDVWSYGIFLWELFSLGSSPYPGMPVDSKFYKMIKEGFRMVSPEHAPAEMYDVMKTCWDADPLKRPTFKQVVQLIEKQISDSTKHIYSNLANCNPNPENPVVVDHSVRVNSVGSSASSTQPLLVHEDA
B3: sp¦P97333¦NRP1_MOUSE (protein, UniProt P97333 22-923, looked up)
Neuropilin-1: FRSDKCGGTIKIENPGYLTSPGYPHSYHPSEKCEWLIQAPEPYQRIMINFNPHFDLEDRDCKYDYVEVIDGENEGGRLWGKFCGKIAPSPVVSSGPFLFIKFVSDYETHGAGFSIRYEIFKRGPECSQNYTAPTGVIKSPGFPEKYPNSLECTYIIFAPKMSEIILEFESFDLEQDSNPPGGMFCRYDRLEIWDGFPEVGPHIGRYCGQKTPGRIRSSSGVLSMVFYTDSAIAKEGFSANYSVLQSSISEDFKCMEALGMESGEIHSDQITASSQYGTNWSVERSRLNYPENGWTPGEDSYKEWIQVDLGLLRFVTAVGTQGAISKETKKKYYVKTYRVDISSNGEDWISLKEGNKAIIFQGNTNPTDVVLGVFSKPLITRFVRIKPVSWETGISMRFEVYGCKITDYPCSGMLGMVSGLISDSQITASNQADRNWMPENIRLVTSRTGWALPPSPHPYTNEWLQVDLGDEKIVRGVIIQGGKHRENKVFMRKFKIAYSNNGSDWKTIMDDSKRKAKSFEGNNNYDTPELRTFSPLSTRFIRIYPERATHSGLGLRMELLGCEVEAPTAGPTTPNGNPVDECDDDQANCHSGTGDDFQLTGGTTVLATEKPTIIDSTIQSEFPTYGFNCEFGWGSHKTFCHWEHDSHAQLRWSVLTSKTGPIQDHTGDGNFIYSQADENQKGKVARLVSPVVYSQSSAHCMTFWYHMSGSHVGTLRVKLRYQKPEEYDQLVWMVVGHQGDHWKEGRVLLHKSLKLYQVIFEGEIGKGNLGGIAVDDISINNHISQEDCAKPTDLDKKNTEIKIDETGSTPGYEGEGEGDKNISRKPGNVLKTLDPILITIIAMSALGVLLGAVCGVVLYCACWHNGMSERNLSALENYNFELVDGVKLKKDKLNPQSNYSEA
B4: sp¦Q3UH99¦SHSA6_MOUSE (protein, UniProt Q3UH99 31-525, looked up)
Protein shisa-6: ARGRSGNRTLNAGAVGGRRAGGALARGGRELNSTARASGVPEAGSRRGQSAAAAAAAAAAASATVTYETCWGYYDVSGQYDKEFECNNSESGYLYCCGTCYYRFCCKKRHEKLDQRQCTNYQSPVWVQTPSTKVVSPGPENKYDPEKDKTNFTVYITCGVIAFVIVAGVFAKVSYDKAHRPPREMNIHRALADILRQQGPIPIAHCERETISAIDTSPKENTPVRSTSKNHYTPVRTAKQTPGDRQYNHPILSSATQTPTHEKPRMNNILTSATEPYDLSFSRSYQNLAHLPPSYESAVKTNPSKYSSLKRLTDKEADEYYMRRRHLPDLAARGTLPLNVIQMSQQKPLPRERPRRPIRAMSQDRVLSPRRGLPDEFGMPYDRILSDEQLLSTERLHSQDPLLSPERTAFPEQSLSRAISHTDVFVSTPVLDRYRMTKMHSHPSASNNSYATLGQSQTAAKRHAFASRRHNTVEQLHYIPGHHTCYTASKTEVTV

The first experiment has as its system hippocampal proteins. Description: DIA quantification proteomics, hippocampus of Mdga2+/- vs WT mice. The arrangement: species or system mouse. To be noted: Mdga2+/- vs WT mouse hippocampus (HET-HIP-VS-WT-HIP); S3 Table, downregulated DEPs; SE, pvalue and adj_pvalue in own columns c3-c5. In short, it runs like this:
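Hippocampi from 1.5–2-month-old male Mdga2+/− mice and WT littermates; 100 μg protein trypsin-digested, peptides high-pH fractionated. DDA-built spectral library, DIA by nano-LC–MS/MS with Spectronaut and mProphet QC. DEPs called at fold change >1.1 and p <0.05.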
Turning to B1, the log2FC was -3.064.
For B2, the log2FC was -2.731.
On to B3, for which the log2FC is given as -3.13.
Same read-out and setting: as for B4, the figure is -2.769.

The same experiment, now with this note: regulation class of the protein, HET-HIP-VS-WT-HIP; S3 Table, downregulated DEPs.
With B1, the Class result is on record as “Down”.
On to B2, for which the Class result was “Down”.
For the molecule B3, the Class result is reported as “Down”.
For the molecule B4, the Class result is “Down”.
